Assay [1] addresses T1, native human CD30L expressed on Ramos cells (human, UniProt P32971 1-234).
T1 construct: It is used here for the native protein on human B cell lines; also called huCD30L; Native huCD30L
T1 sequence: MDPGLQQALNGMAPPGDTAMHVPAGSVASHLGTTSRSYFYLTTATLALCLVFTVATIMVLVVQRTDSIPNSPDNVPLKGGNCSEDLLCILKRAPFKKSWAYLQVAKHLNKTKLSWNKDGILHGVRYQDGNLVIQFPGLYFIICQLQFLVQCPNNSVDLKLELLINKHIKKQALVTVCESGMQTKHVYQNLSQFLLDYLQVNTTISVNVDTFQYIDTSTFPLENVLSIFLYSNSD
Kind of assay: FACS Kd method on Ramos cells, equilibrium, KinExA n-curve analysis. The protocol:
Binding affinity of CD30L antibodies to CD30L expressed on Ramos cells were determined by FACS Kd method. The Ramos cells were cultured in RMPI1640 media+10% FBS+L-glut+0.05% azide. Two equilibrium reactions were set up where the antibodies were titrated 1:3 from 60 nM to […] using cell culture media and incubated with two different constant cell concentrations (25000 and 250000 cells). The plates were sealed with parafilm and incubated at 37° C., 20 h, shaking. The equilibrium plates were centrifuged and cell pellets were washed twice with ice cold FACS buffer (1× D-PBS+2% FBS). The cells were then incubated with a secondary antibody goat anti-human Fe Cy5 (Jackson Immuno Research, West Grove, Pa.) and with 7AAD (BD-Biosciences, Rockville, Md.) for 1 h on ice in the dark. Following the incubation, the cells were washed twice with ice-cold FACS buffer before flow cytometry analysis. The GeoMean values of FL4 shift gated on live cell population measure the bound [Ab]. The inverse of the GeoMean values that reflects theoretical free [Ag] in the equilibrium solution was then calculated. The inverse values of the GeoMean read were used in KinExA software for analysis and Kd calculation for each antibody. The free [Ag] measure was plotted against the starting concentration of titrating component and from these plots at two different cell concentrations the Kd was obtained from curve fitting using n-curve analysis in KinExA™ Pro software. The 95% confidence interval is given as Kd low and Kd high.

Assay [2] concerns the target T2, native cynomolgus monkey CD30L on activated T cells (cynomolgus monkey, UniProt A0A7N9CVX7 1-234).
T2 construct: whole, on cells; also called cynomologous CD30L
T2 sequence: T1 sequence with A19T, M20T, G32E, L41F, V75I, K78R, I204V, I227V
The experiment in a line: FACS, antibody at 50 ug/mL, inhibition of huCD30.Fc-His binding to activated cynomolgus T cells. The protocol:
(§1) Cynomologous activated T cells were prepared by isolating peripheral blood mononuclear cells (PBMC) from heparinized cynomolgus monkey blood by density centrifugation over Isolymph (2000 rpm. for 20 minutes). PBMC were resuspended in 25 mLs of PBS, added to 300 μl of a 50% solution of 2-Aminoethylisothiouronium bromide (AET)-treated sheep erythrocytes and centrifuged at […] at 4° C. for 10 minutes. Pelleted cells were incubated at 4° C. for a further 20 minutes, gently resuspended and centrifuged over Isolymph. Supernatant was removed down to the T cell/erythrocyte pellet. The pellet was then resuspended in 25 mL of lyses buffer (0.85% ammonium chloride in water) and incubated at 37° C. for 10 minutes. The resultant T cells were pelleted and washed x2 in culture medium (RPMI-1640 medium +10% heat-inactivated fetal bovine serum) and then cultured ([…]) at 37° C. for 18 hr in the presence of 10 ng/mL Phorbol Myristate Acetate (PMA; Sigma Chemicals, St Louis, Mo.) and 500 ng/mL lonornycin (Calbiochem, San Francisco, Calif.). At the end of the culture period, cynomolgus T cells were counted and washed 1× with PBS and incubated with 2% Goat serum, 1% Rabbit serum and 0.1% Human serum in PBS for 30 minutes at […]. Cells were then stained with anti-huCD30L antibodies as described above for human Ramos cells.
The antibodies were also screened for ability to block binding of human CD30L to a soluble human CD30. c molecule. Briefly, human Ramos cells or activated cynomolgus monkey T cells were incubated with anti-CD30L IgGs at 50 μg/mL in blocking buffer for 30 minutes at 4° C. Soluble huCD30. Fc-His was then added at a final concentration of 2.5 ug/mL (30 μL/well) and incubated for 30 minutes at 4° C. Cells were washed ×2 with PBS and incubated with 5 μg/mL of a mouse anti-His monoclonal antibody (30μL/well in blocking buffer) and incubated for 30 minutes at 4° C. After washing ×2 with PBS, cells were incubated with anti-mouse IgG-PE (1:50 in PBS; BD Pharmingen, San Diego, Calif.) for a further 30 minutes at […]. Cells were then washed ×2 with PBS and prepared for FACs analysis.
For orientation: Flow cytometry measures light scatter and fluorescence of single cells or particles in a stream.

The target of assay [3] is T2, native cynomolgus monkey CD30L on …. The experiment in a line: FACS, native cyno CD30L on activated cynomolgus T cells. Here is the method:
The antibodies were rescreened for binding to native human and cynomologous monkey CD30L. Briefly, human Burkitt's lymphoma Ramos cells (3×10⁵/well) were incubated in round-bottomed 96-well microtiter plates (Costar® 96 well plate (Corning; Acton, Mass.) with a titration (10 μg/mL to 3.2 ng/mL final concentration) of anti-CD30L IgG antibodies in blocking buffer (PBS containing 0.02% sodium azide, 2% normal goat serum and 1% normal rabbit serum). Human […] fusion protein was included as a positive control for binding. Cells were incubated for 30 minutes at 4° C. then washed ×2 with PBS and incubated for a further 30 minutes at 4° C. with 30 μL/well of anti-hu IgG-biotin (1:50 in blocking buffer; Jackson Immunoresearch, West Grove, Pa.). After washing ×2 with PBS, cells were incubated for 30 minutes at 4° C. with 30 μL/well (1:50 dilution in PBS) of Streptavidin-Phycoerythrin (PE; Molecular Probes, Eugene, Oreg.). Cells were washed 2× with PBS and prepared for FACs analysis.
as §1

The next assay has as its target T3, mouse CD30L (mouse, UniProt P32972 68-239, limits assumed).
T3 construct: The form tested is not described
T3 sequence (looked up): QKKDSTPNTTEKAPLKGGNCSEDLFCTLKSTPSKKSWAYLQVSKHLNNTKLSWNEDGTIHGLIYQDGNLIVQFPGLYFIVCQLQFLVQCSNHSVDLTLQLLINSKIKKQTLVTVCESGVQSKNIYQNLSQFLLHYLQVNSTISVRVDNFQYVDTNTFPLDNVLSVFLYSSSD
The experiment in a line: not described.

Substitutions are numbered along the chain they refer to.

The record followed here is US20220112295A1 (Novo Nordisk, published 2022).

B1: Antibody E (antibody, V domains shown)
VH: QVQLQESGPRLVKPSETLSLTCTVSGGSITNNYWSWIRQPAGKGLEWIGRVYSSGLTNYKPSLKSRVTMSVDTSKNQFSLRLNSVTAADTAVYYCARERATVTTRYHYDGMDVWGQGTSVTVSS
VL: QSALTQPASVSGSPGQSITISCTGSSSDIGTYNYVSWYQQYPGKAPELMIYEVNNRPSGVSDRFSGSTSGNTASLTISGLQANDEADYYCSSYSSSSTWVFGGGTKLTVL
notes: also called mAb E
For orientation: Kd means the free concentration of one partner at which half of the binding sites on the other are occupied at equilibrium, for simple one-to-one binding. In general, % inhibition refers to the change of the read-out against control, counted positive when it falls. The EC50 is the concentration needed to bring the measured effect to its halfway point. The molecule B1 had a dissociation constant (Kd) in assay [1] of 0.0521 nM. For the same molecule, in assay [2], the “% inhibition” value worked out at 87%. In addition, in assay [3], the 50% effective concentration (EC50) was found to be 2.7 nM. Also, the binding result in the assay with mouse CD30L was “no binding”.

B2: Antibody A (antibody, V domains shown)
VH: QVQLQESGPGLVKPSETLSLTCTVSGGSISSYIWSWIRQPAGKGLEWIGRIYASGNTNYNPSLKSRVTMSVDTSKNQFSLKLSSMTAADTAVYYCARDYRVAGTYYYYYGLDVWGQGTTVTVSS
VL: QSALTQPASVSGSPGQSITISCTGTSSDVGVYDYVSWYQQHPGKAPKLMIYEVSNRPSGVSNRFSGSKSGNTASLTISGLQTEDEADYYCSSYTSRSTWVFGGGTKLTVL
notes: Human antibody (XenoMouse); also called mAb A; anti-hCD30L A
For the molecule B2, binding in assay [1] was put at a Kd of 0.0255 nM. For the same molecule, the “% inhibition” value in assay [2] worked out at 77%. The same molecule displayed an EC50 in assay [3] of 2.2 nM. In addition, the binding result in the assay with mouse CD30L was “no binding”.

B3: Antibody F (antibody, V domains shown)
VH: QVQLQESGPGLVKPSETLSLTCTVSGGSISSYYWSWIRQPAGKGLEWIGRIFASGSTNYNPSLRSRVTMSRDTSKNQFSLKLSSVTAADTAVYYCAKERVGVQDYYHYSGMDVWGQGTTVTVSS
VL: B2 VL with V31L, D33N, H41Q, N55K, K68T, T82A, E83D, Y89S, R96S
notes: also called mAb F
Consider B3, for which the Kd in assay [1] was 0.0357 nM. Further, the “% inhibition” value in assay [2] amounted to 97%. The EC50 in assay [3] was found to be 2.9 nM. Further, in the assay with mouse CD30L, the binding result was “no binding”.

B4: Antibody B (antibody, V domains shown)
VH: QVQLQESGPGLVKPSETLSLTCTVSGGSISSYYWTWIRQPAGKGLEWIGRIYTSGITNYNPSLKSRVTMSVDTSKNQFSLKLSSVTAADTAVYYCARERVVGASRYYYYGVDVWGQGTTVTVSS
VL: B2 VL with V31L, D33N, G43D, Y51F, S54N, K68N, T82A, R96S
notes: also called mAb B
On to B4, for which, in assay [1], the Kd is 0.00743 nM. Moreover, the “% inhibition” value in assay [2] came to 88%. The EC50 in assay [3] was 4 nM. Moreover, the binding result in the assay with mouse CD30L is “no binding”.

B5: Antibody D (antibody, V domains shown)
VH: QVQLQESGPGLVKPSETLSLTCTVSGGSISSYSWSWIRQPAGKGLEWIGRTSTSGRNNYNPSLKSRVTMSVDTSKNQFSLKLNSVTAADTAVYYCARDFTIAARRYYYYGMDVWGQGTTVTVSS
VL: B2 VL with V29I, V31L, D33N, M49I, S54I, K68E, T82A, D87N, R96S
notes: also called mAb D
As for B5, the Kd in assay [1] is 0.0119 nM. For the same molecule, the “% inhibition” value in assay [2] was determined as 84%. For the same molecule, the midpoint of the response in assay [3], the EC50, lay at 2.7 nM. Also, the binding result with mouse CD30L was “no binding”.

B6: Antibody C (antibody, V domains shown)
VH: B4 VH
VL: QSALTQPASVSGSPGQSITISCTGTSSDIGLYDYVSWYQQHPDRAPKLIIFEVNNRPSGVSYRFSGSNSGNTASLTISGLQAEDEADYYCSSYTSSSTWVFGGGTKLTVL
notes: also called mAb C
B6 came in with a Kd in assay [1] of 0.044 nM. Besides, the “% inhibition” value in assay [2] worked out at 83%. The molecule further returned a half-maximal effective concentration (EC50) in assay [3] of 1 nM. In addition, in the assay with mouse CD30L, the binding result is recorded as “no binding”.
